21 sequences from the DeepSol protein solubility set can be followed below.

A short description of this data set: soluble on expression in E. coli; label from the status in PepcDB or PDB records.
Turning to “MEAHNVEISTRLTPEMKNQGTIELLYKALQQGDTSTVTKVVASDVEWWFHGPHDCQHMMRLLTGEPPRQVSFRFEPSSVQVVVPGHDCVIAEGWEGSRVYWVHVWKLKDGVVTELREYFNTWLTVTDYSLGAVGWDMGRCTVWESVPRDLARGSLPSLLLAI”, the “soluble on expression in E. coli” value is given as “soluble”.
For the sequence “MEALKRKIEEEGVVLSDQVLKVDSFLNHQIDPLLMQRIGDEFASRFAKDGITKIVTIESSGIAPAVMTGLKLGVPVVFARKHKSLTLTDNLLTASVYSFTKQTESQIAVSGTHLSDQDHVLIIDDFLANGQAAHGLVSIVKQAGASIAGIGIVIEKSFQPGRDELVKLGYRVESLARIQSLEEGKVSFVQEVHS”, the “soluble on expression in E. coli” value was “soluble”.
With “MEANSGGGGGAEGGRAVTGGGGGGGGSDVELVSKTLQVEHKLFYFDLKENPRGRYLKISEKTSATRSTIIVPSSGISWFLDLFNYYVNSEEHELFSKELQLDSKVFYFDIGENRRGRFLKVSEASVSRNRSTIIVPAGSSPDEGWAAFRNILAEIHEASGLFVMPNQKPSDGQEHLVDDVGAGFIPGHGSQQPSSSEHNVDRTIDSPGSDRSSIILPLSGLKQFHEVIGHFVEITKDKIEVLILLEDGNFQSSNHLNLATSSRLPDRGVQ”, the “soluble on expression in E. coli” value is listed as “soluble”.
In the case of “MEAVGADESYDGQQLYMMLVGHSRMADADRTAILGGTFTPIHNGHRALLHKAFQTASHDGSGDGHVIVGLTSPELATETRSDPTHVKQLGAYDDRRSALASELDQLGEPYTATYEIVRLDDTQGPAATRADVDALVASPEAKAQRRAYELNQQRRESGLHPLEIHTPPFVVAEDGTRISSTRIRNGEIDVHGRLLDASE”, the “soluble on expression in E. coli” value is reported as “not soluble”.
For “MEAWIAEAKALLAALVAVPSVSAEGRALREGAEKVAEVLEGLGLRAELHEGYGPPVVFAEGGEGERTLLFYNHYDVQPPDPLELWDTDPFVLAEREGAWYARGAHDYKGELVVRVVALRRFQEKHGFLPRVKFVVEGEEEVGSPHLEAYVADKRDLLKAEAILWEAGGVDAKGRPYLYAGLKGIVALELRVRTAAFDLHSSYGAVVENPIYRLSRALASLRDEEGRVLIPGFYAKVRPLTPLEMEVLAQIPDESEALREAFGVRDFLGGARNLDFNQRLYAEPCVNFNGFHAGYGGPGSKTVLPAEARAKLDFRLVPDQDPEEVPELLRRHLEAQGFHDVEVVVLEKGERPARSDLAHPFVALARRALEEAFGERPVLYPNMAGSGPMHPFLHHLKAPAVGLGVGYPGSRVHSPNEHIRVRDFERGVQALLRLLELFFLGR” the value was “soluble”.
The value for “MEAYEKHYQELRQAKNIDGKPFQLIPVPVTRKVVKEADCKGSYLNFYIGNEVVLVPVYGDEHDKLGLQIIEGQFPGRRIVGIYVNELYAYGGMIHCVTQQHIELEHHHHHH” was “not soluble”.
The value for “MEDEHSRQAYVDQLGLLEEGADEVFEEILAAATSYFQTPIALISILDHQRQWFRASIGLDIRQTPRRDSFCAYAILGKGVFEVADATLDPRFRDNPYVQGEPRIRFYAGAPLATAEGLNLGSLCVIDREPRGPLAERDVAMLEHFARLVMARIHTLRSTNYIDEPTGLYNRLRLQEDVSLRLQRDGALTVIAADLLPLALLNTIIRTLGYPFSNDLMLEARDRIRAELPDFTLYKISPTRFGLLLPRQQQEETESVCLRLLRAFESPVVCRGIPIKANVGLGVLPLADDTLDGDQDWLRLVVSAADDARDRGVGWARYNPPLDQAQQRAFTLLTSLSQAIGTEEGFHLVYQPKIDLPTGRCTGVEALLRWRHPQLGFVSPAEFVPLAEKTALMRPLSDWVLRHAMAQLAQWNARNIPLRLAINVSASDMEDSSFLEEAVRLAKTYDIDLSALELEFTESVLIRDASAVGSVLLRARELGMGIAVDDFGTGYSNWTYLRDLPITAIKLDQSFTRDLAGSPKAQSVTQAVIGLASQLGYRVVAEGIETHDTFHLLQAWGCHEGQGYLIAQPMLPEQLEDWLRRLEHHHHHH” was “not soluble”; that for “MEDLDAYRAACANRIRRLERYKKARSFCSLETDEPTSSSPSLSSNSDVSQENGSSTFDMIREKMFSLMENDMTLLKQLLQLGDQISEIKKERLRRTMSQNSLEYDEEDEKEDKFDSGFSASMSAVTNLYVDDERPQFFSRQNSVLRIPIPPRSSNRFGPRRVIRRPSDILPRQQTNNIRTLHVNSDDSDSSSSGSKTHSPSSSVYNASTLILPSKTTKNRSSNSSIDSGIRDEQLTPSPTFESVVI” was “not soluble”; that for “MEDQLTIFIISDSLGETAKAIAKACLSQFPGHDDWHFQRFSYINSQERLEQVFEEASQKTVFMMFSLVDVALASYAQKRCESEHYAYVDLLTNVIQGISRISGIDPLGEPGILRRLDNDYFKRVESIEFAVKYDDGRDPRGILQADLVIIGISRTSKTPLSMFLADKNIKVINIPLVPEVPVPKELRMIDSRRIIGLTNSVDHLNQVRKVRLKSLGLSSTANYASLERILEETRYAEEVMKNLGCPIINVSDKAIEETATIILEILKTNGQVAKNLLEHHHHHH” was “not soluble”.
For “MEEDSIHLPTHLRLQPIYWSRDDVAQWLKWAENEFSLRPIESNKFEMNGKALLLLTKEDFRYRSPHSGDVLYELLQHILKQRKSRMLFSPFFPPGDSIHTKPEVLLHQNHDEDNCVQRTPRTPAESVHHNPPTIELLHRPRSPITTNHRPSPDPEQQRPQRSPLDNMSRRLSPVEKAQGPRLQQENNHQETYPLSVSPVENNHCLPSSPWQESTRVIQLMPSPIMHPLILNPRHSHSVDFKQSRHSEDGMNREGKPINLSHREDLAYLNHIMVSMSPPEEHAMPIGRIADCRLLWDYVYQLLSDSRYENFIRWEDKESKIFRIVDPNGLARLWGNHKNRTNMTYEKMSRALRHYYKLNIIRKEPGQRLLFRFMKTPDEIMSGRTDRLEHLESQVLDEQTYQEDEPTIASPVGWPRGNLPTGTAGGVMEAGELGVAVKEETRE”, the “soluble on expression in E. coli” value was “soluble”.
Consider “MEEKPKYKRILLKLSGEAFAGEQGYGIDPAFLEYISHEIKNVYDLGVQVAIVIGGGNIFRGFQGKEIGVDRATADYMGMLATVINALALQSALENHVNIPTRVLSAIEMRQVAEPYIRRRAIRHLEKGRIVIFAGGTGNPFFSTDTAAALRAAEIGAEVLIKATKVGGIYDKDPEKYPDAVLIKEISYLEVINMGLKVMDHTALTLCKENEIPIIVLNVKEKGNLRRAVLGEEVGSVVRGLEHHHHHH”, for which the “soluble on expression in E. coli” value was “not soluble”.
In the case of “MEENMNIKQLKSKTMLGTVALVSAFSFASTNADANTYNYAVDVDYLASAEEIAQAHPASNTFPLGQCTWGVKEMATWAGNWWGNGGDWAASAASADYTVGTQPRVGSIVCWTDGSYGHVAYVTAVDPVTNKIQVLESNYAGHQWIDNYRGWFDPQNTVTPGVVSYIYPNLEHHHHHH”, the “soluble on expression in E. coli” value is listed as “not soluble”.
For “MEEPMEVDNKRPKVLTWTEKYRPKTLDDIAYQDEVVTMLKGALQGRDLPHLLFYGPPGTGKTSAALAFCRQLFPKNIFHDRVLDLNASDERGIAVVRQKIQSFSKSSLGHSHREDVLKLKIIILDEVDAMTREAQAAMRRVIEDFSKTTRFILICNYVSRLIPPVVSRCAKFRFKSLPAEIQVQRLRTICDAEGTPMSDDELKQVMEYSEGDLRRAVCTLQSLAPILKSGDDNARNCYLRGSSDSLLISNVCKSILTADVPQIIALTKDITKSCTGVAFIRRCFQQLMDEDVINDENIGVMGKLVATCEKRILDGCDLENNLLDFLLTLRETIQ” the value was “not soluble”; for “MEEPSELGASKEKPIELNEDDESSDGENSVIILDSDTEPEDGAGGEEDEDNGEDSEEEDEEDSDEEESEDDSDSSVDTESVNSVWSNVDEENGEEITTEAAEAKIIKKFEKAIFSIADNDSETGRRILEKLLNDAIIATYNQENPDFELLDEPPRLAKMLQVFIASHRNLAKLCEKEVENADEKEKEQLKSEEIQHLCQVLAYEPNSSDIWLDVALKSIEFGDLNFSKYAFKRCETLKESLESHATLLYLTCDYNESLMIMKQFQEQNDVLNDKLKYLKHKIRSTNQYYKLSCDRIFEEDEVYADVQSVEKRKIQDFDERIEALRSRVVGKIEQRDVDFRDEEEKCSVIPIRIEADQE”, “not soluble”.
The value for MEEQNANQMLTDILSFMKSGKRAAALEHHHHHH was “soluble”; that for “MEESKTPHVAIIPSPGMGHLIPLVEFAKRLVHLHGLTVTFVIAGEGPPSKAQRTVLDSLPSSISSVFLPPVDLTDLSSSTRIESRISLTVTRSNPELRKVFDSFVEGGRLPTALVVDLFGTDAFDVAVEFHVPPYIFYPTTANVLSFFLHLPKLDETVSCEFRELTEPLMLPGCVPVAGKDFLDPAQDRKDDAYKWLLHNTKRYKEAEGILVNTFFELEPNAIKALQEPGLDKPPVYPVGPLVNIGKQEAKQTEESECLKWLDNQPLGSVLYVSFGSGGTLTCEQLNELALGLADSEQRFLWVIRSPSGIANSSYFDSHSQTDPLTFLPPGFLERTKKRGFVIPFWAPQAQVLAHPSTGGFLTHCGWNSTLESVVSGIPLIAWPLYAEQKMNAVLLSEDIRAALRPRAGDDGLVRREEVARVVKGLMEGEEGKGVRNKMKELKEAACRVLKDDGTSTKALSLVALKWKAHKKELEQNGNH” was “soluble”; that for “MEEVVRFECRDSNLEIYVVQPGERLSIFGSCSFLCLAGNASINDYNLPAVSCESSNFMKISAPQRMDVPAILQVFKSGPSYKHARLKFRLKEVAPKNYEKIMEMIGTTEPSVFIFSKILDFAEETVSGVVSNFLIHSSIQKQIILPPHFFISRDDFIIYPQQQEAQLKSQMNRLNKLRNDGQRTTILPIGHKGAGKSNLMRSLVNRCLSNGYEHVYVLDCDIGQSEFTPCGCLSLTKVTSPILGKPHGHQRASFENSFFYGDITVRDINLYMDIFERLFNKFKVISEPGSVCIINSMGWVTDEGAEILDGITRVTDPELFVEIFRDQTEARYQFLNRAEHNIVEIFANNSIGVIGLPPQKRLPAALIRELTIVGYFSSRLPRPSLASFPKVAPYKLRFENVTICVPVDLLVEDSHVFSSINTQIMALCINNTDLKPRKLYGKDDLPSICVIDGNSPALQCIGFGIIRGVSVEERIIFVVTPVDLLKLEEPPVLVRGMRIQTPTMFYTADPYNRCPYVLNDLEQGNSDNTLDGLYQPSVNTTQFKRSRRF” was “not soluble”.
As for “MEFFFFIDVYADRELVDYYIVTFKLDDLSSVELTGSQGKYYIRGIRDWEKFKEEAYDITLYELGDEVDRFKDIETALREAYRIAIGEAVRRGAKNIVPAIGFGNPPPEVVERVYPEELKFEKFPEDLDAFLDRIVKEVSLETTERSKDDDEIPF”, the “soluble on expression in E. coli” value is “soluble”.
As to “MEFKNPGFTGLFVIGRKYFMTAENTEMTLHPKKLPPNAGKGRVKGVPNKTTSLLKESVIEAAKRAGSKYGKEGLISYLEKQALKCPAAYLALLGKVLPLQVTGEDGGAIKMIGRVEIAPLGHDNTTD”, the “soluble on expression in E. coli” value is “not soluble”.
For “MEFPFDVDALFPERITVLDQHLRPPARRPGTTTPARVDLQQQIMTIIDELGKASAKAQNLSAPITSASRMQSNRHVVYILKDSSARPAGKGAIIGFIKVGYKKLFVLDDREAHNEVEPLCILDFYIHESVQRHGHGRELFQYMLQKERVEPHQLAIDRPSQKLLKFLNKHYNLETTVPQVNNFVIFEGFFAHQHPPARKLPPKRAEGDIKPYSSSDREFLKVAVEPPWPLNRAPRRATPPAHPPPRSSSLGNSPERGPLRPFVPEQELLRSLRLCPPHPTARLLLAADPGGSPAQRRRTR” the value was “not soluble”; for “MEGGFGSDFGGSGSGKLDPGLIMEQVKVQIAVANAQELLQRMTDKCFRKCIGKPGGSLDNSEQKCIAMCMDRYMDAWNTVSRAYNSRLQRERANM”, “not soluble”.
